Test results reported in US20220119534A1 (DRAGONFLY THERAPEUTICS, published 2022).

T1: human CLEC12A expressed on cells (human, UniProt Q5QGZ9 1-265)
T1 construct: Transduced isogenic cells or endogenous expression on AML cells; also called RMA-hCLEC12A; Ba/F3-hCLEC12A
T1 sequence: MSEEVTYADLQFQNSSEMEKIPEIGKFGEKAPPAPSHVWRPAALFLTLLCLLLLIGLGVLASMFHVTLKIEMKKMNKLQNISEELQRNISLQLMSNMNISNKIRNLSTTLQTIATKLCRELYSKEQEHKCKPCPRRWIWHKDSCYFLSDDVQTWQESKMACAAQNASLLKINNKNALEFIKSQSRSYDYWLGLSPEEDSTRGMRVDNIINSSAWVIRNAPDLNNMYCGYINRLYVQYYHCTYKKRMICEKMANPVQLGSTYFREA

T2: recombinant human CLEC12A-His (human, UniProt Q5QGZ9 65-265)
T2 construct: also called hCLEC12A-His; hCLEC12A
T2 sequence: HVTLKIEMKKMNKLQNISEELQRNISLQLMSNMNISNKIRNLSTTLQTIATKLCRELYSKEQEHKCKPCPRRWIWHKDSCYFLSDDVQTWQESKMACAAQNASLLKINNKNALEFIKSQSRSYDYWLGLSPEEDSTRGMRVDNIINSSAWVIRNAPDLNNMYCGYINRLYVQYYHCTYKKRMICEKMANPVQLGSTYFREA


Tests used:
[1] = target: T1, human CLEC12A expressed on cells; experiment: flow cytometry, HL60
[2] = target: T1, human CLEC12A expressed on cells; experiment: flow cytometry, hCLEC12A+ Ba/F3
[3] = target: T2, recombinant human CLEC12A-His; experiment: SPR screening, semi-purified

EC50 [1] [nM] | Max binding MFI [1] [MFI] | EC50 [2] [nM] | Max binding MFI [2] [MFI] | Kd [3] [nM] | koff [3] [s⁻¹] | kon [3] [M⁻¹ s⁻¹] | Binder
0.6 | 420 | 0.6 | 7940 | 1.73 | 0.00126 | 728000 | AB0191 (other, As AB0185) EVQLVESGGGVVQPGGSLRLSCAASGFTFNSFGMHWVRQAPGKCLEWVAFISSGSTSIYYANTVKGRFTISRDNSKNTLYLQMNSLRAEDTAVYYCARDGYPTGGAMDYWGQGTSVTVSSGGGGSGGGGSGGGGSGGGGSDIQMTQSPSSLSASVGDRVTITCKASQDIYNYLSWFQQKPGKAPKPLIYRANILVSGVPSRFSGSGSGQDYTFTISSLQPEDIATYYCLQFDAFPFTFGCGTKLEIKGSDKTHTCPPCPAPELLGGPSVFLFPPKPKDTLMISRTPEVTCVVVDVSHEDPEVKFNWYVDGVEVHNAKTKPREEQYNSTYRVVSVLTVLHQDWLNGKEYKCKVSNKALPAPIEKTISKAKGQPREPRVYTLPPCRDELTKNQVSLTCLVKGFYPSDIAVEWESNGQPENNYKTTPPVLVSDGSFTLYSKLTVDKSRWQQGNVFSCSVMHEALHNHYTQKSLSLSPG heavy: EVQLVESGGGLVKPGGSLRLSCAASGFTFSSYSMNWVRQAPGKGLEWVSSISSSSSYIYYADSVKGRFTISRDNAKNSLYLQMNSLRAEDTAVYYCARGAPIGAAAGWFDPWGQGTLVTVSSASTKGPSVFPLAPSSKSTSGGTAALGCLVKDYFPEPVTVSWNSGALTSGVHTFPAVLQSSGLYSLSSVVTVPSSSLGTQTYICNVNHKPSNTKVDKKVEPKSCDKTHTCPPCPAPELLGGPSVFLFPPKPKDTLMISRTPEVTCVVVDVSHEDPEVKFNWYVDGVEVHNAKTKPREEQYNSTYRVVSVLTVLHQDWLNGKEYKCKVSNKALPAPIEKTISKAKGQPREPQVCTLPPSRDELTENQVSLTCLVKGFYPSDIAVEWESNGQPENNYKTTPPVLDSDGSFFLYSWLTVDKSRWQQGNVFSCSVMHEALHNHYTQKSLSLSPG light: DIQMTQSPSSVSASVGDRVTITCRASQGISSWLAWYQQKPGKAPKLLIYAASSLQSGVPSRFSGSGSGTDFTLTISSLQPEDFATYYCQQGVSFPRTFGGGTKVEIKRTVAAPSVFIFPPSDEQLKSGTASVVCLLNNFYPREAKVQWKVDNALQSGNSQESVTEQDSKDSTYSLSSTLTLSKADYEKHKVYACEVTHQGLSSPVTKSFNRGEC
0.4 | 372 | 0.7 | 8020 | 1.4 | 0.00101 | 726000 | AB0185 (other, Humanized 9F11.B7 F3' TriNKET; scFv-Fc chain built from the general F3' description) DIQMTQSPSSLSASVGDRVTITCKASQDIYNYLSWFQQKPGKAPKPLIYRANILVSGVPSRFSGSGSGQDYTFTISSLQPEDIATYYCLQFDAFPFTFGCGTKLEIKGGGGSGGGGSGGGGSGGGGSEVQLVESGGGVVQPGGSLRLSCAASGFTFNSFGMHWVRQAPGKCLEWVAFISSGSTSIYYANTVKGRFTISRDNSKNTLYLQMNSLRAEDTAVYYCARDGYPTGGAMDYWGQGTSVTVSSGSDKTHTCPPCPAPELLGGPSVFLFPPKPKDTLMISRTPEVTCVVVDVSHEDPEVKFNWYVDGVEVHNAKTKPREEQYNSTYRVVSVLTVLHQDWLNGKEYKCKVSNKALPAPIEKTISKAKGQPREPRVYTLPPCRDELTKNQVSLTCLVKGFYPSDIAVEWESNGQPENNYKTTPPVLVSDGSFTLYSKLTVDKSRWQQGNVFSCSVMHEALHNHYTQKSLSLSPG heavy: EVQLVESGGGLVKPGGSLRLSCAASGFTFSSYSMNWVRQAPGKGLEWVSSISSSSSYIYYADSVKGRFTISRDNAKNSLYLQMNSLRAEDTAVYYCARGAPIGAAAGWFDPWGQGTLVTVSSASTKGPSVFPLAPSSKSTSGGTAALGCLVKDYFPEPVTVSWNSGALTSGVHTFPAVLQSSGLYSLSSVVTVPSSSLGTQTYICNVNHKPSNTKVDKKVEPKSCDKTHTCPPCPAPELLGGPSVFLFPPKPKDTLMISRTPEVTCVVVDVSHEDPEVKFNWYVDGVEVHNAKTKPREEQYNSTYRVVSVLTVLHQDWLNGKEYKCKVSNKALPAPIEKTISKAKGQPREPQVCTLPPSRDELTENQVSLTCLVKGFYPSDIAVEWESNGQPENNYKTTPPVLDSDGSFFLYSWLTVDKSRWQQGNVFSCSVMHEALHNHYTQKSLSLSPG light: DIQMTQSPSSVSASVGDRVTITCRASQGISSWLAWYQQKPGKAPKLLIYAASSLQSGVPSRFSGSGSGTDFTLTISSLQPEDFATYYCQQGVSFPRTFGGGTKVEIKRTVAAPSVFIFPPSDEQLKSGTASVVCLLNNFYPREAKVQWKVDNALQSGNSQESVTEQDSKDSTYSLSSTLTLSKADYEKHKVYACEVTHQGLSSPVTKSFNRGEC
0.7 | 551 | 0.6 | 10800 | 1.68 | 0.00129 | 766000 | AB0195 (other, As AB0185) EVQLVESGGGVVQPGGSLRLSCAASGFTFNAFGMHWVRQAPGKCLEWVAFISSGSTSIYYANTVKGRFTISRDNSKNTLYLQMNSLRAEDTAVYYCARDGYPTGGAMDYWGQGTSVTVSSGGGGSGGGGSGGGGSGGGGSDIKMTQSPSSLSASVGDRVTITCKASQDIYNYLSWFQQKPGKAPKPLIYRANILVSGVPSRFSGSGSGQDYTLTISSLQPEDIATYYCLQFDAFPFTFGCGTKLEIKGSDKTHTCPPCPAPELLGGPSVFLFPPKPKDTLMISRTPEVTCVVVDVSHEDPEVKFNWYVDGVEVHNAKTKPREEQYNSTYRVVSVLTVLHQDWLNGKEYKCKVSNKALPAPIEKTISKAKGQPREPRVYTLPPCRDELTKNQVSLTCLVKGFYPSDIAVEWESNGQPENNYKTTPPVLVSDGSFTLYSKLTVDKSRWQQGNVFSCSVMHEALHNHYTQKSLSLSPG heavy: EVQLVESGGGLVKPGGSLRLSCAASGFTFSSYSMNWVRQAPGKGLEWVSSISSSSSYIYYADSVKGRFTISRDNAKNSLYLQMNSLRAEDTAVYYCARGAPIGAAAGWFDPWGQGTLVTVSSASTKGPSVFPLAPSSKSTSGGTAALGCLVKDYFPEPVTVSWNSGALTSGVHTFPAVLQSSGLYSLSSVVTVPSSSLGTQTYICNVNHKPSNTKVDKKVEPKSCDKTHTCPPCPAPELLGGPSVFLFPPKPKDTLMISRTPEVTCVVVDVSHEDPEVKFNWYVDGVEVHNAKTKPREEQYNSTYRVVSVLTVLHQDWLNGKEYKCKVSNKALPAPIEKTISKAKGQPREPQVCTLPPSRDELTENQVSLTCLVKGFYPSDIAVEWESNGQPENNYKTTPPVLDSDGSFFLYSWLTVDKSRWQQGNVFSCSVMHEALHNHYTQKSLSLSPG light: DIQMTQSPSSVSASVGDRVTITCRASQGISSWLAWYQQKPGKAPKLLIYAASSLQSGVPSRFSGSGSGTDFTLTISSLQPEDFATYYCQQGVSFPRTFGGGTKVEIKRTVAAPSVFIFPPSDEQLKSGTASVVCLLNNFYPREAKVQWKVDNALQSGNSQESVTEQDSKDSTYSLSSTLTLSKADYEKHKVYACEVTHQGLSSPVTKSFNRGEC
0.5 | 412 | 0.7 | 8160 | 1.04 | 0.00117 | 1.12e+06 | AB0186 (other, As AB0185) DIQMTQSPSSLSASVGDRVTITCKASQDIYNYLSWFQQKPGKAPKPLIYRANILVSGVPSRFSGSGSGQDYTFTISSLQPEDIATYYCLQFDAFPFTFGCGTKLEIKGGGGSGGGGSGGGGSGGGGSEVQLVESGGGVVQPGGSLRLSCAASGFTFNAFGMHWVRQAPGKCLEWVAFISSGSTSIYYANTVKGRFTISRDNSKNTLYLQMNSLRAEDTAVYYCARDGYPTGGAMDYWGQGTSVTVSSGSDKTHTCPPCPAPELLGGPSVFLFPPKPKDTLMISRTPEVTCVVVDVSHEDPEVKFNWYVDGVEVHNAKTKPREEQYNSTYRVVSVLTVLHQDWLNGKEYKCKVSNKALPAPIEKTISKAKGQPREPRVYTLPPCRDELTKNQVSLTCLVKGFYPSDIAVEWESNGQPENNYKTTPPVLVSDGSFTLYSKLTVDKSRWQQGNVFSCSVMHEALHNHYTQKSLSLSPG heavy: EVQLVESGGGLVKPGGSLRLSCAASGFTFSSYSMNWVRQAPGKGLEWVSSISSSSSYIYYADSVKGRFTISRDNAKNSLYLQMNSLRAEDTAVYYCARGAPIGAAAGWFDPWGQGTLVTVSSASTKGPSVFPLAPSSKSTSGGTAALGCLVKDYFPEPVTVSWNSGALTSGVHTFPAVLQSSGLYSLSSVVTVPSSSLGTQTYICNVNHKPSNTKVDKKVEPKSCDKTHTCPPCPAPELLGGPSVFLFPPKPKDTLMISRTPEVTCVVVDVSHEDPEVKFNWYVDGVEVHNAKTKPREEQYNSTYRVVSVLTVLHQDWLNGKEYKCKVSNKALPAPIEKTISKAKGQPREPQVCTLPPSRDELTENQVSLTCLVKGFYPSDIAVEWESNGQPENNYKTTPPVLDSDGSFFLYSWLTVDKSRWQQGNVFSCSVMHEALHNHYTQKSLSLSPG light: DIQMTQSPSSVSASVGDRVTITCRASQGISSWLAWYQQKPGKAPKLLIYAASSLQSGVPSRFSGSGSGTDFTLTISSLQPEDFATYYCQQGVSFPRTFGGGTKVEIKRTVAAPSVFIFPPSDEQLKSGTASVVCLLNNFYPREAKVQWKVDNALQSGNSQESVTEQDSKDSTYSLSSTLTLSKADYEKHKVYACEVTHQGLSSPVTKSFNRGEC
